*: point of attachment. Benzoyl(4-F) = O=C(c1ccc(F)cc1)*
B1: FB-…(FB) (peptide)
peptide: XGDLTYLKX
modifications: N-terminal fluorobenzoyl (FB); fluorobenzoyl (FB) on the side chain of the C-terminal lysine
notes: N-fluorobenzoylated variant of ST1-62
B2: Me-…(FB) (peptide)
peptide: XGDLTYLKX
modifications: N-terminal methyl (Me); fluorobenzoyl (FB) on the side chain of the C-terminal lysine
notes: N-methylated variant of ST1-62
B3: FB-…(FB)-PEG28 (peptide)
peptide: XGDLTYLKXX
modifications: N-terminal fluorobenzoyl (FB); fluorobenzoyl (FB) on the side chain of the C-terminal lysine; PEG28 attached to the C-terminal lysine
notes: also called ST1-92
B4: FB-…(Ac)-PEG28 (peptide)
peptide: XGDLTYLKXX
modifications: N-terminal fluorobenzoyl (FB); acetyl (Ac) on the side chain of the C-terminal lysine; PEG28 attached to the C-terminal lysine
notes: N-fluorobenzoylated, C-PEGylated variant of ST1-62
B5: Ac-…(FB) (peptide)
peptide: XGDLTYLKX
modifications: N-terminal acetyl (Ac); fluorobenzoyl (FB) on the side chain of the C-terminal lysine
notes: N-acetylated variant of ST1-62
B6: FB-…(Ac) (peptide)
peptide: XGDLTYLKX
modifications: N-terminal fluorobenzoyl (FB); acetyl (Ac) on the side chain of the C-terminal lysine
notes: as for B1
B7: ST1-61, …(FB) (peptide)
peptide: H-RGDLRELAK(Benzoyl(4-F))-NH2
SMILES: CC(C)C[C@H](NC(=O)[C@H](CCC(=O)O)NC(=O)[C@H](CCCNC(=N)N)NC(=O)[C@H](CC(C)C)NC(=O)[C@H](CC(=O)O)NC(=O)CNC(=O)[C@@H](N)CCCNC(=N)N)C(=O)N[C@@H](C)C(=O)N[C@@H](CCCCNC(=O)c1ccc(F)cc1)C(N)=O
notes: free N-terminus; also called Peptide 5
B8: ST1-59, …(FB) (peptide)
peptide: H-RGDLMKLAK(Benzoyl(4-F))-NH2
SMILES: CSCC[C@H](NC(=O)[C@H](CC(C)C)NC(=O)[C@H](CC(=O)O)NC(=O)CNC(=O)[C@@H](N)CCCNC(=N)N)C(=O)N[C@@H](CCCCN)C(=O)N[C@@H](CC(C)C)C(=O)N[C@@H](C)C(=O)N[C@@H](CCCCNC(=O)c1ccc(F)cc1)C(N)=O
notes: free N-terminus; also called Peptide 2

The binders below were run against T1, αvβ6 integrin (purified) (UniProt P06756 31-992; P18564 22-707) (assay: ELISA, αvβ6 integrin).
T1 construct: Purified integrin captured on plate by anti-αv antibody P2W7; also called purified integrin
T1 sequence (P06756 31-992, chain 1 of 2): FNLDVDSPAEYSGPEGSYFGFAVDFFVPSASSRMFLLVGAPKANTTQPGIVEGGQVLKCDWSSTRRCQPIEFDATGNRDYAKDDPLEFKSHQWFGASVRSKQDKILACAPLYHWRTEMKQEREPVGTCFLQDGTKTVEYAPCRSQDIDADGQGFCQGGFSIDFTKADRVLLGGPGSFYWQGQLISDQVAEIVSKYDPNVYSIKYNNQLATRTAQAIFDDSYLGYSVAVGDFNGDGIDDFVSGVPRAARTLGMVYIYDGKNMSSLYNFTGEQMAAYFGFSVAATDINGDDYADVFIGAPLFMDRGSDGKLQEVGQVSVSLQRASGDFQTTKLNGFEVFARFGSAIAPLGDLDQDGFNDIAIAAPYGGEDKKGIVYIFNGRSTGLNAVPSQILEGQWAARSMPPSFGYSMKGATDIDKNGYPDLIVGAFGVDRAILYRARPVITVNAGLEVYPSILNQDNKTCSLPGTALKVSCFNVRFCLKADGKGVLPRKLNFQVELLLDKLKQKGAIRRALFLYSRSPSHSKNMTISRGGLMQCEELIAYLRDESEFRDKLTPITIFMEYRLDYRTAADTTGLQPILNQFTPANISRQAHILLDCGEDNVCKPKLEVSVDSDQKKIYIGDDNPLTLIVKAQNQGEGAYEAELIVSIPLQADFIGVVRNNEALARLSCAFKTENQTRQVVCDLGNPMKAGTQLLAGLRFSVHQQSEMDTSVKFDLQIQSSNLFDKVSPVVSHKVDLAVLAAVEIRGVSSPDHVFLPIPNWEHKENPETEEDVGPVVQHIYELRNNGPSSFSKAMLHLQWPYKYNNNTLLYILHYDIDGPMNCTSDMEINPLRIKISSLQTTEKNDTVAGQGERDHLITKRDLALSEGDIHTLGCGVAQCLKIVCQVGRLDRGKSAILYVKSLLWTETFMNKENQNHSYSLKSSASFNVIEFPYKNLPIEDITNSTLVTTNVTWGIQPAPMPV
T1 sequence (P18564 22-707, chain 2 of 2): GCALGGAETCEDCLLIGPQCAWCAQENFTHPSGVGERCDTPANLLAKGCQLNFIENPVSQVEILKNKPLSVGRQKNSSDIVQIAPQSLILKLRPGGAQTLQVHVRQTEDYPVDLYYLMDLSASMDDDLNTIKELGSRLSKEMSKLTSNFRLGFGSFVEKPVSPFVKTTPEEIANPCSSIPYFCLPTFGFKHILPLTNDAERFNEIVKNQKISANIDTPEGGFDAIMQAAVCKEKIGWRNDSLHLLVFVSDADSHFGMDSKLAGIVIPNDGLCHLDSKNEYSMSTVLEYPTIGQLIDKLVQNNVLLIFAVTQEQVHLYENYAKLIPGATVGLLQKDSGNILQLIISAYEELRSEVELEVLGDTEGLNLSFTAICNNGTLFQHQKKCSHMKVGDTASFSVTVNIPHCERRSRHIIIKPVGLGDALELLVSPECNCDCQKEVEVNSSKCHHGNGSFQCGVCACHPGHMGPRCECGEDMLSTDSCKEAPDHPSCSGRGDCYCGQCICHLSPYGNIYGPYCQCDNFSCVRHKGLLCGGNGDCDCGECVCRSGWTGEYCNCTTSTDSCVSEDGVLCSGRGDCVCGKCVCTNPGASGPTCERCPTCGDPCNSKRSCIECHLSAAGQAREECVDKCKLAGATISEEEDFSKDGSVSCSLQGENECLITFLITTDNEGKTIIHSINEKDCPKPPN

Binder | IC50 [nM]
B1 | 21.9
B2 | 500
B3 | 17.6
B4 | 15.5
B5 | 1600
B6 | 4.3

What follows are binders tested against T1, αvβ6 integrin (purified) (assay: competitive binding ELISA, purified integrin; competitor biotinylated natural ligand).
Protocol: (§1) Anti-αᵥ capture antibody P2W7 (5 μg/mL, Novus Biologicals) was coated onto Nunc MaxiSorp 96-well plates, followed by blocking with BSA overnight at 4° C. All wells were washed 3 times with PBS, followed by plating of purified integrin (3 μg/mL) and incubating at room temperature in a humid chamber for 1 hour. Peptide solutions, titrated (1 μM-1 pM for integrin and 100 μM-100 pM for αᵥβ₃ integrin) and mixed with biotinylated natural ligand, were added to the integrin-coated wells in triplicate. After incubating for an hour at room temperature, the plate was washed 3 times with wash buffer. Captured biotinylated natural ligand was detected with ExtrAvidin-HRP and developed with TMB substrate. Half-maximal inhibitory concentration (IC₅₀) of peptides was determined fitting to sigmoidal dose-response model in GraphPad Prism 6.0 (FIG. 5A). Results are shown in FIG. 5B and below in Table 2.

Binder | IC50 [nM]
H-RGDLADLRK(Benzoyl(4-F))-NH2 (free N-terminus; also called Peptide 3) [ST1-60, …(FB)] | 4.7
B7 | 1.1
B8 | 2.7
H-VGDLTYLKK(4‑fluorobenzoyl)-NH2 (free N-terminus; also called Peptide 1) [ST1-62, …(FB)] | 11

The binders below were run against αvβ1 integrin (purified) (UniProt P06756 31-992; P05556 21-728) in the same assay as above.
Chain of αvβ1 integrin (purified) (P06756 31-992, chain 1 of 2): as the sequence (P06756 31-992, chain 1 of 2) above
Chain of αvβ1 integrin (purified) (P05556 21-728, chain 2 of 2): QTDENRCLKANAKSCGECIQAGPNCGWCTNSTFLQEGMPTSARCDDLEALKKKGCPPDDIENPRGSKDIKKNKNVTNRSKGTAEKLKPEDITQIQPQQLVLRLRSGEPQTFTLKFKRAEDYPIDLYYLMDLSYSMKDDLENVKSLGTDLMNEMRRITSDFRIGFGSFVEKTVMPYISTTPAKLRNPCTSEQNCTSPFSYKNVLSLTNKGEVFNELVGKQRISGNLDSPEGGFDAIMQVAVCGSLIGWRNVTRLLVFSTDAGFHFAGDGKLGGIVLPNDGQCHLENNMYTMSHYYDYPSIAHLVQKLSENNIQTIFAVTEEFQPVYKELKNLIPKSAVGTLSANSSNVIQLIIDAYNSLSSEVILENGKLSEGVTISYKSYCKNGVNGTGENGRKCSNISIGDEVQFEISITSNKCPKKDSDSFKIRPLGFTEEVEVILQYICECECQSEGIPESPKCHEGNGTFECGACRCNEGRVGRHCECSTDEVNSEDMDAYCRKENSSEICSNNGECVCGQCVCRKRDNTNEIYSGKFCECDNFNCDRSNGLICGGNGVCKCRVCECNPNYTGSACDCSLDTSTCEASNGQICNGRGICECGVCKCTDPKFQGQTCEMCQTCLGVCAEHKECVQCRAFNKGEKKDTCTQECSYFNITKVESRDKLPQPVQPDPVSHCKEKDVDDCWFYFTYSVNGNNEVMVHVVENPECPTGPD
Protocol: as §1

Binder | IC50 [nM]
H-RGDLADLRK(Benzoyl(4-F))-NH2 (free N-terminus; also called Peptide 3) [ST1-60, …(FB)] | 600
B7 | 2300
B8 | 900

These binders were tested against αvβ3 integrin (purified) (UniProt P06756 31-992; P05106 27-718) in the same assay as above.
Chain of αvβ3 integrin (purified) (P06756 31-992, chain 1 of 2): as the sequence (P06756 31-992, chain 1 of 2) above
Chain of αvβ3 integrin (purified) (P05106 27-718, chain 2 of 2): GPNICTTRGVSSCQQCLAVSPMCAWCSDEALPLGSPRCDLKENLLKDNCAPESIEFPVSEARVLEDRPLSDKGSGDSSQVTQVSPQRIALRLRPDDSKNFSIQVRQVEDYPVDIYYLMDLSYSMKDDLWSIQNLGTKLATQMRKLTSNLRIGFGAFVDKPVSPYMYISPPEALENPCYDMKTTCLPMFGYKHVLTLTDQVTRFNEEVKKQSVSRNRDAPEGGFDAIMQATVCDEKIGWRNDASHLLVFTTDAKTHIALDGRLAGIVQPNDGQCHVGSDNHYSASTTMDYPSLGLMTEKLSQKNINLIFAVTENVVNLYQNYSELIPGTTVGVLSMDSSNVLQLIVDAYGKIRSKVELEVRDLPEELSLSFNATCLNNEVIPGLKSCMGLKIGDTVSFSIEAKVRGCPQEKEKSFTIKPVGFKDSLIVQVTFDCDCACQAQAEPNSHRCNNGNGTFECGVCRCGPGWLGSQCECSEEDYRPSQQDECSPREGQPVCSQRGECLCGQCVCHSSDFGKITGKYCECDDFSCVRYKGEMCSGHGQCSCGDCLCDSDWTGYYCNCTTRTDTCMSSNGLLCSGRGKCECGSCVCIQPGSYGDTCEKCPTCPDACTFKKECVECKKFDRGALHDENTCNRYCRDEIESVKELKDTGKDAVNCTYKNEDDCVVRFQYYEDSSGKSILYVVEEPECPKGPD
Protocol: as §1

Binder | IC50 [nM]
H-RGDLADLRK(Benzoyl(4-F))-NH2 (free N-terminus; also called Peptide 3) [ST1-60, …(FB)] | 500
B7 | 300
B8 | 2200

What follows are binders tested against αvβ8 integrin (purified) (UniProt P06756 31-992; P26012 43-684) in the same assay as above.
Chain of αvβ8 integrin (purified) (P06756 31-992, chain 1 of 2): as the sequence (P06756 31-992, chain 1 of 2) above
Chain of αvβ8 integrin (purified) (P26012 43-684, chain 2 of 2): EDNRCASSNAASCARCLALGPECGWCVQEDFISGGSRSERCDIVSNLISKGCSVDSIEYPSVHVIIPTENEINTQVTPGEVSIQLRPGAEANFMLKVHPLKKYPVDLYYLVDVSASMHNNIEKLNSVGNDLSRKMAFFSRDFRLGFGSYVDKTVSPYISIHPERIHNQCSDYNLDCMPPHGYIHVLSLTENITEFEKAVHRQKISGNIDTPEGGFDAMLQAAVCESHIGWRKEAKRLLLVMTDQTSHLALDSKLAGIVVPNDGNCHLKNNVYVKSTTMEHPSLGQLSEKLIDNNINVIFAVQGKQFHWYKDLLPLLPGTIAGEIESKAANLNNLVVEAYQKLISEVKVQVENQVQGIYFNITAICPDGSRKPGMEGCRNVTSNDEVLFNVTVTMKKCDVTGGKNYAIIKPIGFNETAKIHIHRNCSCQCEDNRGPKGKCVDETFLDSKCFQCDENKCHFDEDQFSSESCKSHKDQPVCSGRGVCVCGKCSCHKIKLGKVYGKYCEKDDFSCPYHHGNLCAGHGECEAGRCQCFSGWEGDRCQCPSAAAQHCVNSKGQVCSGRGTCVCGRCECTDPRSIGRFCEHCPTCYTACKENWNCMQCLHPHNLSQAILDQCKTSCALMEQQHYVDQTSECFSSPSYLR
Protocol: as §1

Binder | IC50 [nM]
H-RGDLADLRK(Benzoyl(4-F))-NH2 (free N-terminus; also called Peptide 3) [ST1-60, …(FB)] | 160
B7 | 2600
B8 | 2590
H-VGDLTYLKK(4‑fluorobenzoyl)-NH2 (free N-terminus; also called Peptide 1) [ST1-62, …(FB)] | 5300
